Assay results as given in patent publication US20090252748A1 (Biogen, published 2009).
Positions count from the first letter of the chain named. Read-outs that look alike come from different tables or passages of the source. One block for each binder: values may come before it.

Tests used:
[1] = biological target: T1, human Sp35 protein (ELISA, Western, KD; form not stated) (human, UniProt Q96FE5 40-538, limits assumed); experiment: ELISA
T1 construct: also called huSp35; hLINGO-1
T1 sequence: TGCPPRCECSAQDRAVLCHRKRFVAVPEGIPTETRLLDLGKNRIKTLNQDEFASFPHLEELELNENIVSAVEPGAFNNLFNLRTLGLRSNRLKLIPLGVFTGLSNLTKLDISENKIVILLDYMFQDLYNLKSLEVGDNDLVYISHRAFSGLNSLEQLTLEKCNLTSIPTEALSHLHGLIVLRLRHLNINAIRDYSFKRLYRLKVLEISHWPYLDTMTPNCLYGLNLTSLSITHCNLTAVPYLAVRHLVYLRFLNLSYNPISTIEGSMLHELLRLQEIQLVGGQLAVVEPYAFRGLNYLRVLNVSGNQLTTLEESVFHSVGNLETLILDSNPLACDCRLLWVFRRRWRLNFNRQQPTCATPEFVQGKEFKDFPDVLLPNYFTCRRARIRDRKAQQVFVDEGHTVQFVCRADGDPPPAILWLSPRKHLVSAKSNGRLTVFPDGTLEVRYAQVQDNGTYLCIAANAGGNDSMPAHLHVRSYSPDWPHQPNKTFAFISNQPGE

[2] = biological target: T2, full-length human Sp35 with an N-terminal HA tag (lysate of transfected COS-1 cells) (human, UniProt Q96FE5 40-620); experiment: IP
T2 construct: used here for all IP columns headed huSp35 / hLINGO-1; also called huSp35 (IP); hLINGO-1 (IP)
T2 sequence: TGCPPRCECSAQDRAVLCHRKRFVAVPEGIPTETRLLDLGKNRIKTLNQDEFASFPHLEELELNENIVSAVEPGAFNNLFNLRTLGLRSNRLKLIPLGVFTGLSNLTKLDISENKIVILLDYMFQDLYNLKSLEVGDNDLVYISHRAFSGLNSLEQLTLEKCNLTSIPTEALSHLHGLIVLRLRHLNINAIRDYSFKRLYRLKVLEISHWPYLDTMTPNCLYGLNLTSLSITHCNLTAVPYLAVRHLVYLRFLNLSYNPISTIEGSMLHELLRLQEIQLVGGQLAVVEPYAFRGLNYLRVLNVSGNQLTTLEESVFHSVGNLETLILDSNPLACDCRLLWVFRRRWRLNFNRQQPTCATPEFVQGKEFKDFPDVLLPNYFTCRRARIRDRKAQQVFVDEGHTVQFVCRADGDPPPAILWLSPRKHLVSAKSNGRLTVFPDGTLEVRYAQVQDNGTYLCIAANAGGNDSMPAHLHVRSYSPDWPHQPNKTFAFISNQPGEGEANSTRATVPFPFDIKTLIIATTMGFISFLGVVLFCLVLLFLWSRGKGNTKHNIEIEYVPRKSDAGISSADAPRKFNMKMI
Procedure: To perform the immunoprecipitation, COS-1 cells expressing Sp35, fused to a hemaglutinin (HA) tag on the N-terminus, were produced by transiently transfecting COS-1 cells with a DNA construct which expresses the full-length Sp35 protein with an HA tag. Cells were harvested 48 hr after transfection and were lysed in 1 ml lysis buffer (50 mM HEPES, pH 7.5, 150 mM NaCl, 1.5 mM MgCl₂, 1 mM EGTA, 1% Triton X-100 and 10% glycerol) for 30 min at 4° C. After centrifugation at 14,000×g for 15 min, the supernatants were incubated with ProteinA/G-Sepharose beads (Santa Cruz) at 4° C. for 1 hr, and then incubated at 4° C. for 1 hr with either the 1A7 or the 2F3 anti-Sp35 murine monoclonal antibodies. The beads were washed 3 times with lysis buffer, boiled in Laemmli sample buffer, subjected to 4-20% SDS-PAGE, and analyzed by Western blotting using an antibody which recognizes the HA tag. As shown on the SDS-PAGE gel, monoclonal antibodies 1A7 and 2F3, immunoprecipitated human and murine Sp35 (FIG. 1). […] Similarly, monoclonal antibodies 1G7, 2B10, 2F3, 3P4C2.2D2, 3P4C8.2G9, Li01, Li03, Li05, Li06, Li07, Li08, Li11, Li12, 7P1D5.1G9 and 3B5.2 immunoprecipitate human or mouse or human and mouse Sp35 (See Table 3B and 3C). Additionally, Li08 immunoprecipitates AP-Sp35 and monoclonal antibodies 1B6.4 and 3E3.1 immunoprecipitate endogenous Sp35 (See Table 3B).

[3] = biological target: T3, human Sp35 protein expressed on transfected cells (human, UniProt Q96FE5 40-620); experiment: FACS
T3 construct: also called huSp35; hLINGO-1
T3 sequence: T2 sequence

[4] = biological target: T2, full-length human Sp35 with an …; experiment: IP; remark: listed apart in the source
[5] = biological target: T4, Sp35-Fc fusion protein (human Sp35 residues 1-532 fused to hinge and Fc of human IgG1) (human, UniProt Q96FE5 40-538); experiment: ELISA
T4 construct: also called LINGO-1-Ig; LINGO-1-Fc; not shown: hinge and Fc region of human IgG1
T4 sequence: T1 sequence
Procedure: (§1) In order to determine which regions of the Sp35 polypeptide were bound by the various hybridoma- and phage display-derived monoclonal antibodies produced in Example 2, an ELISA assay was performed using a panel of truncated Sp35 polypeptides, each fused to the hinge and Fc regions of IgG1 by the methods described in Example 1. […] Ovalbumin and BSA were used as controls. […] The affinity of these latter antibodies for mouse and rat Sp35 was restored to the level seen using human Sp35 when amino acid 419 of the mouse or rat Sp35 is changed from histidine (H) to arginine (R). Arginine is the amino acid at position 419 in human Sp35. […] AP substrate was then developed by 10 mg/ml 4 NPP in 0.1 M Glycine, 1 mM MgCl₂, 1 mM ZnCl₂, pH 10.5, and read at O.D. 405.

[6] = biological target: T5, Sp35 fragment 34-532 (ELISA) (human, UniProt Q96FE5 40-538); experiment: ELISA
T5 sequence: T1 sequence
Procedure: as §1

[7] = biological target: T1, human Sp35 protein (ELISA, Western, KD; …); experiment: method not stated; second figure of the same phrase, inconsistent with the 10 nM already written
[8] = biological target: T6, mouse Sp35 protein (ELISA, Western, KD; form not stated) (mouse, UniProt Q9D1T0 34-532, limits assumed); experiment: method not stated
T6 construct: also called mSp35; mLINGO1
T6 sequence (looked up): T1 sequence with S261G, V315A, R386H

[9] = biological target: T1, human Sp35 protein (ELISA, Western, KD; …); experiment: method not stated

binding result [1]: binds
B3: 28-D02 (Li10) Fab (Fab, V domains shown)
VH: EVQLLESGGGLVQPGGSLRLSCAASGFTFSTYPMVWVRQAPGKGLEWVSWIGPSGGVTAYADSVKGRFTISRDNSKNTLYLQMNSLRAEDTAVYYCARPYSSGWWDFDLWGRGTLVTVSS
VL: DIQMTQSPSSMSASVGDTVTITCRASQGIGNWLAWYQQKPGKAPTLLIYAASSLESGVPSRFTGSGSSSGIDFTLTISDLHPEDLATYYCQQAQTFPLTFGGGTRVDLK
notes: human, kappa; also called Dli10

binding result [1]: binds
binding result [2]: binds
B4: 35-E04 (Li03) Fab (Fab, V domains shown)
VH: EVQLLESGGGLVQPGGSLRLSCAASGFTFSQYPMEWVRQAPGKGLEWVSGIYPSGGSTVYADSVKGRFTISRDNSKNTLYLQMNSLRAEDTAVYYCARAGQWLGDFDYWGQGTLVTVSS
VL: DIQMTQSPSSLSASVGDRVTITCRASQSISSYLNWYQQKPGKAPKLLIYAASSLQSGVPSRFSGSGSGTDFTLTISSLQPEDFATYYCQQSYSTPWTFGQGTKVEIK
notes: human, kappa; also called Dli03

binding result [1]: binds
binding result [4]: binds
B5: 80-D02 (Dli34) Fab (Fab, V domains shown)
VH: EVQLLESGGGLVQPGGSLRLSCAASGFTFSNYEMYWVRQAPGKGLEWVSGIYSSGGITVYADSVKGRFTISRDNSKNTLYLQMNSLRAEDTAVYYCARAAILDWYFDLWGRGTLVTVSS
VL: DIQMTQSPSSLSASVGDRVTITCHASQDISNYLSWYQQKPGKAPKLLIYDAFNLETGVPSRFSGSGSGTDFTFTISSLQPEDFATYYCQHYDNLPFTFGPGTRVAIR
notes: human

binding result [1]: binds
binding result [2]: binds
binding result [5]: binds
binding result [6]: binds
B7: 3P1E11.3B7 (antibody, mouse IgG1, V domains shown)
VH: QVQLQQSGAELARPGASVKLSCRASGYTFTSSWTQWVKQRPGQGLEWIGAIYPGDGDTRYTQKFKGKATLTADKSSSTAYMQLSSLASEDSAVYYCARHNSYGMDYWGQGTSVTVSS
VL: DIVMTQSPSSLTVTAGEKVTMSCKSSQSLLNSGNQKSYLTWYQQKPGQPPKLLIYWASTRESGVPDRFTGSGSGTDFTLTINSVQAEDLAVYYCQNDYSYPLFTFGSGTKLEIR
notes: murine IgG1

Further lines, the binder ahead of its results:

B1: 30-B01 (Li11) Fab (Fab, V domains shown)
VH: EVQLLESGGGLVQPGGSLRLSCAASGFTFSSYAMYWVRQAPGKGLEWVSSISTSGGYTGYADSVKGRFTISRDNSKNTLYLQMNSLRAEDTAVYYCARDTSDNDYYYMDVWGKGTTVTVSS
VL: DIQMTQSPSSVSAPIGDRVTITCRASQEIANYLAWYQQKPGKAPKLLIYDTYTLQTDVPPRFSGSGSGTDFTLTISSLQPEDTATYFCQQADIFPLSFGGGTKVEIK
notes: human, kappa; also called Dli11; Li011
binding result [1]: binds
binding result [2]: binds
binding result [3]: binds

B2: 79-G02 (Dli32) Fab (Fab, V domains shown)
VH: EVQLLESGGGLVQPGGSLRLSCAASGFTFSAYMMQWVRQAPGKGLEWVSSISPSGGNTKYADSVKGRFTISRDNSKNTLYLQMNSLRAEDTAVYYCARGDYGYWFDPWGQGTLVTVSS
VL: DIQMTQSPDSLSASVGDRVTITCQASQDISYYLNWYQQKPGMAPKLLIYDAFILEGGAPSRFSGSGSGTDFSFTISNLQPEDIATYFCQQSDQLPVTFGQGTKVEIR
notes: human
binding result [1]: binds

B6: 3P1D10.2C3 (antibody, mouse IgG1, V domains shown)
VH: B7 VH
VL: B7 VL with S37N
notes: murine IgG1
binding result [1]: binds
binding result [2]: binds
binding result [5]: binds
binding result [6]: binds

B8: 1A7 monoclonal antibody (antibody, mouse IgG1, V domains shown)
VH: QVQLVQSGPELKKPGETVKISCKASGYTFTNYGMNWVKQAPGKGLKWMGWINTDTGEPTYTEDFQGRFAFSLETSASTVYLQFNNLKNEDTATYFCAREGVHFDYWGQGTTVTVSS
VL: QIVLTQSPAIMSASPGEKVTMTCSASSSVSYMHWYQQKSGTSPKRWIYDTSKLASGVPARFSGSGSGTSYSLTISSMEAEDAATYYCQQWSSNPFTFGSGTKLEIK
notes: murine IgG1/kappa; also called P1A7; 1A7 mAb
Kd [7]: 1 nM
Kd [8]: 20000 nM
Kd [9]: 10 nM
